From the domain aggregation screens of Martell et al. (2025)

assay: soluble fraction after stress (log2 fold change); higher = more stays soluble; pooled small domains, quantitative proteomics; conditions: stress: 75 degC
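Also: 20 min heating vs room temperature control held 20 min.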

Row | Sequence | soluble fraction (log2)
1 | HMAAAQILRAAVLRVPAEETMRFVTETPELRRYLGASLGPTAAIVRPGQEQNLAAALQSHGILVEFDE | -0.0423
2 | HMAADLIGLEARVTLPLTEDQRGFIETSVRGSLVRRAALSASGRLDRGQRVVILRSEGTTLIVDAL | -3.37
3 | HMAADRRKAERPLIDGQAVMDRFEVGPGPMVGKALKFLLALKRAEPDLDLAGTEERLDAWWNEQL | 0.0606
4 | HMAAEFERKNGIVYFFHSSEKPHLNYPHVHARYGEDTISISLRDFTVIGSFSSKKKQKEAVEYVKNK | -0.829
5 | HMAAEPDQQLIKPASDPVLRTMKIEELMKMSEQVKIQMSKAAKNFDYLEAARLRDEHFALENLIKLRS | -0.106
6 | HMAAGELSGEALIALIERHPMALSALATTFGHSESDLRAFVEPLARQGRLRLFESQGTLFVGGIG | -0.5
7 | HMAAHHIILEEREQLSVSGVEEVESFDENTIVMLTNRGTLIVRGEELHIEKLSLDGGDLRVEGSIDSLTYE | -0.465
8 | HMAAHWANFLEALRAGRARRVLVARGVEGWLLKELERLGAPYTLVPRIELDTLLRTTHHQGIAAEVE | -1.46
9 | HMAAPELLTVRERQVAALISDGLSNQQIAHRLHLEVTTVKAHIGSIFNRLDMNNRVQIAIWAHDRQLVFS | -0.161
10 | HMAAQDIILKRNAEQIEAIVKEITDTDVKYRKFTNTEGVTYSIRRSEVFSITYENGTMDLFA | 0.248
11 | HMAAQDLIVKTDASQVEARVLEISPDAVRYKRFSNPDGPTYVLPVAEIRYIRYANGEVEYYA | -0.624
12 | HMAAQLAHVPAVTGRPLAEAQRILADNRLNAQVTQQPVAEPKLDGVVIAQKITEGTRTMRGATVPLIVGKY | -0.00421
13 | HMAASGTVNSGGDPLRVRADPNTSSQILTKLSDGTQVEVLEQAENGWYKIAHEGISGFVSGEYLVVH | 0.0197
14 | HMAAVAPPVLERIASDLATRFAGTLSPETVDRYVRESYHLLAERAGITRYLPSLTARFAGDRLDA | 0.0295
15 | HMAAVEDLPVKSVNGKKYHYYTVQPKESLYSLSHKLGISRQEIIKYNPGVEDGLKAYEDLLFPYTPK | 0.192
16 | HMAAVSTDEEFAALGIPAEWIPVLKSNGFQTVESLKKVAPGALFNQLGGLRKKNKLEIAMPSLDQVKAWLA | 0.333
17 | HMADDFISTLFSEGIIIDTEVKQFAERQGSPLQFVRHIASNLPEPRDIITMGEVRSVMREGA | -0.00121
18 | HMADEEEIMVPQVVGKTYDEAKSELENAGFKVEKNEKTSDKASGTVISQSINGGAKKGTSVTLTVSKGN | 0.0356
19 | HMADFYEVLGVERNASSDQIKRAYRKLARELHPDVNLDPVAQNRFKEVTEAYEVLSDPNKRSNFDRG | 0.0366
20 | HMADGEWAEMQRQLTAAGLLVVGRAAQERIQRLSDISPLIEAAQRSNVVMLSERTVDEVLTLVPT | -0.225
21 | HMADGTSIYAEREVLYVTSPTANTAKVYNVSGALVRTMTLSAGQTVRTALPAGFYVVALGNGNTHKVIV | -2.4
22 | HMADKSLLELPGLDGDKVSALVTAGVRNVNDLADLATDELVEKTGFDEKTAADLIIAARAVVY | 0.43
23 | HMADLNQTDIDSITKSVGGVEQYKSLMDWAGKTLSQDAIDSFDDLVNTGNKGSIQLAVNGLVAQYQNDN | 0.167
24 | HMADMKIHLRPYAHDTNRWHVDIRLMHPTAATEIRKRLVAPAGLSEAQARAWGERQVPTILGKALGVI | -1.65

Row | Sequence | soluble fraction (log2)
25 | HMADNILPAQTDAIKALATENGFSNESLEKYLIENYGTTIYGLSRNQGIQIINLFQSENPPKP | 0.277
26 | HMADQIIEGILGKEGGYVNNPNDKGGPTRWGITQTTARAYGYSGDMKALPRDTAKAIYLSQYWT | -0.0711
27 | HMADTPQAYIRQMVQEAGADGIMLSTITDRLRARFKDFKVRDLGYAQMRQYMASTGTYDLEKSGRNFRVHL | -1.06
28 | HMADTSLDHLGVLVRHASDVDAWAEFFENRGVTLASQPRTHRDGARSFYVDDPDGNRVQVIYHPPI | -0.779
29 | HMADWTETELAALRRAYASGTTRVSYDGKSVDYGSAEDLLSRIRTLQGAASDVAADAVAAVDA | -0.0473
30 | HMADYSMDDNAWNAKKADIDEWFEANPDFSANKAITDGLFSIGDSQVEMRKRYWASIAGVFAGLPNSPIG | 0.0121
31 | HMAEANTEADFVAIGVRAELLPILQKLGVHTIEQLKGIKATKLFNDIPGMRKKLKLDAVQNPTLQEIEGWL | -0.146
32 | HMAEAPGSVELLAERLRPWWEIHGGEWGSKTKALRFLFGDQAPVAGSYWRALEAAIAQIESTT | -0.692
33 | HMAEKNALWEEDAVYAADSSALARDGYDAIVRTDKGGKKGYLVVGTGGRERFMPLQTLVMLGYLKK | -0.433
34 | HMAEKRTAIITTARADIRQKPEATAPLAFEAVKDVVLELTDKPADGWVRVKHRDGSTGYIRINQI | 0.0638
35 | HMAELAKAKLDAAVQVALLKAGALDTDYLAYKLQGMDGVALDDKGSLTGWDTTLETLKSQYPTQFA | -0.368
36 | HMAEPTLNERLREALSDPAKLKIAKAIKAKYPIITARDIDTFLNMHEKDIENGADPMDEFEEFFHANY | 0.201
37 | HMAEPYDEDKVMEHLYIKGKDVVIAHLKHLKEHNEHVWLKKGVEWMQKNQDRLGFDMMEVIYVVHNH | -0.833
38 | HMAEQEELDAIRPDLDGQEIMDILGIKPGREVGAARNFLLELRLDEGPLGYDEAVSRLLTWWAERT | -0.0583
39 | HMAETLLWADAAQEGLNRIVAAQPILVRISAAKRLRDASEQAAKAAGVSTVEIGHVQHASESLQFGDA | 0.0809
40 | HMAETLRLVGATNLNTLARARHPDDLAARNEFRRAIAQANPALFAGKSKVGSVSLPAGTVLALPPEV | 0.0163
41 | HMAEVDDESIKLYDGGYQSNTTKSRLNALLSEFGYDTEHVFQKQFEWFISIFDLTEKAMRTVPFSNGMRL | 0.0627
42 | HMAEVGDFTLAELIKVLFNEAGVLKAPVELRNDNTGGLQYRVGAYTDSETGWETIASIADLKGA | -0.734
43 | HMAEWLLVQLTNGNWFYGEVIEKTDATIVLNTDILGKVSIQKLDIRRSISGPLTAAKRQEIEDSERAKD | -1.65
44 | HMAFDDAHYKDMITSYLKKFKKGNRSEIENLIIPKLSEVLVEKQKKDKVKNLLQALRKDNQIRLKGKYWYL | 0.422
45 | HMAFIEADIGKRIKSLRNKKRITLESLAAETGFTKGYLSKVETSEKAPPVSTLGSIARALGVSISTLLGE | -1.31
46 | HMAFKDDDVQKAYDRYMDRYGELSVLYSDNGLKVDDDLFYKNNIPPNGKFTKEFFDELYELVNMEFINNY | -0.173
47 | HMAFRLPNGYGTIRRLTGNRRKPYVALVNPTQVFDDEKGTSHYKYDLLGTFAEKIDAYNAVMQYHKSPGGL | -1.13
48 | HMAGAPANLAARLREQILQGAYHDGQRLPAERHLAAEHGVSRGTVREALRLLEQGALLTRKRGSGSYVTYP | -0.516

Row | Sequence | soluble fraction (log2)
49 | HMAGDVVVEVVGKVRDPQVVTLPKGSRVQDALEAAGGVKPGVNTTDQNLARLLVDGEQIRIGLSS | 0.107
50 | HMAGFGDSLEKMSDAVEALKLLMSTEDARNDQNIQKIARELKDVFNKYRTHLRKSYPDQYDRIKSTL | -0.742
51 | HMAGGNHPTRLELLDSAAHIAERDGTSALTVDAITKSAGHAKGTFYIHFDDRADLLVEMHRR | -0.247
52 | HMAGIPIHMSQLKQIILLLSQGYPIKGIARETGVSRNTIKGYLQTLTSQDLNVTDALKLENIQLEYLLRSP | -1.97
53 | HMAGLYSLLLVELPMERLPEDLPAIKAAWLKTGDTEAFKVALQAMSSRGWTIAVPGKHRDTQMTQL | 0.259
54 | HMAGPVLTPEEAEVLRILADHGEMTVDNISAEGKMSAAVVLRGLGVLSAYGLVAPGGPGRWRSE | -0.806
55 | HMAGTDLSERESEIAMLLLKGYPYKLIASRLYISESTVKSHVQNIYGKLGIHSRTELIEQFSAS | -0.649
56 | HMAGTPAIVKWFNPTKGFGFVTPKEAGSDALLHASVLAKRGKRWLQEGTLVEVLIEEGPKGLVVSELLTIE | -0.84
57 | HMAGTRRFELVEGSSSKFWEVTVADGSYTVTYGRIGTAGGSKTTESATAEADAEKLVREKLKKGYQEAGAA | 0.102
58 | HMAGTRVWSENGQLYVTAAVSGRANVYNVLGKLNRSLTFSAGETKSVSVPAGIYVVSLNNGKAYKVAV | -3.28
59 | HMAGWIPVEERLPDDLTNPITRDAYVYPVTVDLGDVTDIRYYSFWRGHWYNQGPETMDDLVIAWMLLPEPY | -0.279
60 | HMAHESYVKEQLLLSLTNHEDPIMQISLIEQLTKMHERNIIHELEKLTVDVQTNEEVKVQAYASLLILS | -0.869
61 | HMAHKYYSIMRPVSIGTFPDNGTILGIVNFDTRQMVESIGKMAWGYINYGKPLTEKQISDYELVAE | -1.4
62 | HMAHLNYQTVDINALIRHSLQLVSQDAQSRGIALQFTPRPELTTISADPDRLNQVLLNLYLNAMQD | -0.607
63 | HMAHLSPNDAARLVGVSRPLLNQILDEGRITFFETAGGHRKIKLAAVLAYIKERDEVAAQLAAART | -0.724
64 | HMAHSDEAWSVARRVARELDKILDGAGPRRTALVRAAAELRLSTRQIYNLLARYRADRTVTSLLPRR | -0.27
65 | HMAHSWEAIRVKLQQIIDEEDKTKPLNDDQIKEKLAEAGIPNLARRTVAKYRKLLNIPTARFRKR | -0.993
66 | HMAIDINKIYSEIKKKIPNQDNHIKEILSIIWRDFNNYQNIKSRSILINGEKSSPKKEIFNIIEDNINIPV | 0.0633
67 | HMAIDPLLDKGYEQYDKGEFTEAVKSFNRAIEIDPKNAEAHFLRAMTYQGLALSKLAVADLEKAIV | 0.0903
68 | HMAIGDYYINASALNVRSGEGTNYRIIGALPQGQKVQVISENSGWSKINYNGQTGYIGTRYLSKTPV | -0.264
69 | HMAIHTSVTEHGEHDLTVRMEMEQVFAIEMAVVSHEQATMLERTFKANAEAIYQKLLGVMTQEYP | -2.42
70 | HMAISEEEATNLALERVPGASAQDLRIQLEFDDGVQKYEGDIIYDGKEYDFEIDANTGTFLEWSE | -0.0521
